The text below walks through data of patent US20150232576.

For this series, the target named is T1, endothelial nitric oxide synthase (eNOS), purified, unphosphorylated (UniProt P29473).
T1 sequence: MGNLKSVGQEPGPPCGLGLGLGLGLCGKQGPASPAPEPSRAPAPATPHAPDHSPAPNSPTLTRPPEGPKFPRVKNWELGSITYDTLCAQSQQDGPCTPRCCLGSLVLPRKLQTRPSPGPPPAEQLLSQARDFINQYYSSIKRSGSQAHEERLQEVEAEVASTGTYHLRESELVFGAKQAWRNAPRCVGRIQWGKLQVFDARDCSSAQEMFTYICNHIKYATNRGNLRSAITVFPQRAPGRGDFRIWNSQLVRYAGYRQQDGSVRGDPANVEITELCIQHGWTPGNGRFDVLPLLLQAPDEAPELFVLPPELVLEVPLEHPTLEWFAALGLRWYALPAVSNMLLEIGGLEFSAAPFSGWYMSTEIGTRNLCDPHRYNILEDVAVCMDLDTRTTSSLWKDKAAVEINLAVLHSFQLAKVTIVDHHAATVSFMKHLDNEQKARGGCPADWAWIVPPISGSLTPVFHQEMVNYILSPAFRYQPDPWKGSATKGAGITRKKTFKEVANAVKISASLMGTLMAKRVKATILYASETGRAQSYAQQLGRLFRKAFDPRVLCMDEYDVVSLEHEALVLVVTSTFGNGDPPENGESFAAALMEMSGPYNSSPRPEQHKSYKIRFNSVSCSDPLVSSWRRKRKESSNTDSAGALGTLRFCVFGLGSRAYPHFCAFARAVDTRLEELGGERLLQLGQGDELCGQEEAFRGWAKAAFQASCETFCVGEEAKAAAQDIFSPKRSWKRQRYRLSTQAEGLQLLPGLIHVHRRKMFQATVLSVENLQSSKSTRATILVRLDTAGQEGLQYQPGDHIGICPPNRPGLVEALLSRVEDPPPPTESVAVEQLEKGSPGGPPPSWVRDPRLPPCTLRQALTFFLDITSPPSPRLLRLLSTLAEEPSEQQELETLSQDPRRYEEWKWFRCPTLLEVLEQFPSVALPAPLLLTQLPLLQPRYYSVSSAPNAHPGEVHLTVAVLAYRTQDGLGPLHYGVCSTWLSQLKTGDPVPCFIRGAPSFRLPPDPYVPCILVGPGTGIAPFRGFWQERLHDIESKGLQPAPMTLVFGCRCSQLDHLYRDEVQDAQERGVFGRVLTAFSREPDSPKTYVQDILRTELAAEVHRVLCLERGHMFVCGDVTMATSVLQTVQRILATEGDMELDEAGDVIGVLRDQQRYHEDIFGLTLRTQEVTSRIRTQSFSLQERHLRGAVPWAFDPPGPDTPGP

As for Phosphorylated His-p38 (p38 MAP kinase), the “NO production (hemoglobin capture assay)” value is recorded as “Weak inhibition of NO formation by 1 µM p38 in the presence of 0.6 µM CaM was observed; NO production was reduced by an average of 30%”.
